Measured values published in PMC6638984, “Increased association between Epstein-Barr virus EBNA2 from type 2 strains and the transcriptional repressor BS69 restricts EBNA2 activity” (PLoS Pathogens, 2019).

Target: T1, BS69CC-MYND (BS69 amino acid 480–602, CC-MYND domain) (Homo sapiens, UniProt Q15326)
T1 construct: The BS69 CC-MYND domain (amino acids 480–602) was amplified from pCI-BS69; GST (N, cleaved yes); 6xHis (N, cleaved yes); made in house; host or cells: E. coli Rosetta 2 (DE3) pLysS
T1 sequence (Q15326 480-602): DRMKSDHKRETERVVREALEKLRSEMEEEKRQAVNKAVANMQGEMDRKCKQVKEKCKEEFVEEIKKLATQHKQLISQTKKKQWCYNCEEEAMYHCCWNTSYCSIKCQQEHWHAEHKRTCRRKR
Assay: Isothermal titration calorimetry (ITC) of EBNA2 peptides and polypeptides binding to BS69CC-MYND
Conditions: 25°C, mean ± SD of 3 independent experiments; for n value (stoichiometry of BS69CC-MYND/EBNA2 binding, monomeric proteins), one-site model: pH 7.5, polypeptides 19 x 2.0 μl injections into 0.1 mM BS69CC-MYND
Excerpt: We hypothesised that the impaired gene activation and growth maintenance properties of type 2 EBNA2 may be the result of increased binding to BS69 as a result of the aspartate to serine amino acid difference adjacent to BS69 binding motif 2. […] We used isothermal titration calorimetry (ITC) to determine the affinity of peptide binding to the C-terminal region of BS69 (amino acid 480–602) comprising the CC-MYND domain that we expressed and purified from E.coli (Fig 1B and 1C). […] The difference in binding between type 1 and type 2 EBNA2 motif 2 peptides could be influenced by both the aspartate to serine change and differences in two other amino acids present in the sequence (Fig 1B and 1C).
The BS69 CC-MYND domain (amino acids 480–602) was amplified from pCI-BS69 containing the full length human BS69 sequence (gift from Dr Stéphane Ansieau) and cloned using SLIC into the SmaI and HindIII sites of pET49b+ to generate a construct expressing an N-terminal GST-6x Histidine tag BS69CC-MYND fusion protein (S2 Table).
Four commercially synthesized peptides (Peptide Synthetics) were used for ITC. These included BS69 binding motif 2 of type 1 EBNA2 (435–445) or type 2 EBNA2 (402–412) and putative BS69 binding motif 3 of type 1 EBNA2 (445–455) or type 2 EBNA2 (412–422).
Frozen protein was quickly thawed using running water and dialysed overnight at 4°C using Slide-A-Lyzer MINI Dialysis Units (Thermo Scientific) against ITC buffer (20mM Tris-HCl, 100mM NaCl and 1mM TCEP, pH 7.5). The next day, protein samples were centrifuged at 13000 rpm for 10 mins at 4 °C and the concentration was determined by NanoDrop spectroscopy (NanoDrop Technologies) with their respective molecular weights and extinction coefficients. EBNA2 peptides (1mM) and polypeptides (type 1, 0.3 mM and type 2, 0.6 mM) were titrated against BS69CC-MYND (0.1mM) at 25°C using a MicroCalTM iTC200 instrument (Malvern). For peptides, 13 x 3.0 μl injections were used for titration. For EBNA2 polypeptides 19 x 2.0 μl or 29 x 1.3 μl injections were used for titration. ITC data were corrected for non-specific heat and analysed using MicroCal Origin 7.0. The experiments were performed in triplicate alongside a control experiment with no BS69CC-MYND (buffer only in the cell). All polypeptides were used within 24 hrs of dialysis into ITC buffer.

[1] = pH 7.5, peptides 13 injections, polypeptides 19 injections

Row | Substance | Kd (20mM Tris-HCl, 100mM NaCl, 1mM TCEP, pH 7.5, EBNA2 titrated into 0.1 mM BS69CC-MYND, peptides 1 mM, 13 injections, n fixed to 1, polypeptides 19 x 2.0 μl injections, read-out: KD (dissociation constant), one-site (one event) binding model) [µM] | -TΔS, one-site model [1] [kcal/mol] | ΔG, one-site model [1] [kcal/mol] | ΔH, one-site model [1] [kcal/mol] | n value (stoichiometry of BS69CC-MYND/EBNA2 binding, monomeric proteins), one-site model | n value (stoichiometry of BS69CC-MYND/EBNA2 binding, monomeric proteins), one-site model (listed as type 1 EBNA2_381-445) | KD (dissociation constant), one-site (one event) binding model (20mM Tris-HCl, 100mM NaCl, 1mM TCEP, pH 7.5, EBNA2 titrated into 0.1 mM BS69CC-MYND, peptides 1 mM, 13 injections, n fixed to 1, polypeptides 19 x 2.0 μl injections)
1 | T1 EBNA2_381-445: type 1 EBNA2 polypeptide, amino acids 381–445, expressed and purified from E.coli | 0.95 | 18.4 ± 0.46 | -8.22 ± 0.08 | -26.6 ± 0.53 | 0.42 ± 0.02 | 0.42 | 
2 | YPPSIDPADLD [T1 EBNA2 motif 3] |  |  |  |  |  |  | not able to detect any binding
